Patent publication US20260256915A1 (published 2026)

T1: PRAME peptide on HLA-A*02:01 (human)
T1 peptide: SLLQHLIGL

B1: nwTCR-3273 (TCR, V domains shown)
Valpha: SQELEQSPQSLIVQEGKNLTINCTSSKTLYGLYWYKQKYGEGLIFLMMLQKGGEEKSHEKITAKLDEKKQQSSLHITASQPSHAGIYLCGAVPINDYKLSFGAGTTVTVRA
Vbeta: EAQVTQNPRYLITVTGKKLTVTCSQNMNHEYMSWYRQDPGLGLRQIYYSMNVEVTDKGDVPEGYKVSRKEKRNFPLILESPSPNQTSLYFCASSIDSGSSYNEQFFGPGTRLTVL
B2: nwTCR-3272 (TCR, V domains shown)
Valpha: QKEVEQNSGPLSVPEGAIASLNCTYSDRGSQSFFWYRQYSGKSPELIMSIYSNGDKEDGRFTAQLNKASQYVSLLIRDSQPSDSATYLCAVPSGNMLTFGGGTRLMVKP
Vbeta: DVKVTQSSRYLVKRTGEKVFLECVQDMDHENMFWYRQDPGLGLRLIYFSYDVKMKEKGDIPEGYSVSREKKERFSLILESASTNQTSMYLCASSSATSGSGEQYFGPGTRLTVT
B3: nwTCR-3271 (TCR, V domains shown)
Valpha: DQQVKQNSPSLSVQEGRISILNCDYTNSMFDYFLWYKKYPAEGPTFLISISSIKDKNEDGRFTVFLNKSAKHLSLHIVPSQPGDSAVYFCAAKPDKLIFGTGTRLQVFP
Vbeta: SAVISQKPSRDICQRGTSLTIQCQVDSQVTMMFWYRQQPGQSLTLIATANQGSEATYESGFVIDKFPISRPNLTFSTLTVSNMSPEDSSIYLCSVWGAGLAIYNEQFFGPGTRLTVL
B4: nwTCR-3274 (TCR, V domains shown)
Valpha: QKEVEQNSGPLSVPEGAIASLNCTYSDRGSQSFFWYRQYSGKSPELIMSIYSNGDKEDGRFTAQLNKASQYVSLLIRDSQPSDSATYLCAVVSGGYNKLIFGAGTRLAVHP
Vbeta: EPEVTQTPSHQVTQMGQEVILRCVPISNHLYFYWYRQILGQKVEFLVSFYNNEISEKSEIFDDQFSVERPDGSNFTLKIRSTKLEDSAMYFCASSEGWGGTEAFFGQGTRLTVV

Biological target: T1, PRAME peptide on HLA-A*02:01
Assay: multimer staining

Row | binding result | Binder
1 | recognises | B1
2 | recognises | B2
3 | recognises | B3
4 | recognises | B4
